# Test: yeast display, Sf9 membrane polyspecificity reagent, FACS + sequencing; frameworks hold sequencing errors
# In short: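 A synthetic nanobody library was expressed on Saccharomyces cerevisiae BJ5465 by galactose induction for 36–48 hours. The library was stained for 1 hour at 4 °C with 10% biotinylated, detergent-solubilized Sf9 membrane reagent and enriched with streptavidin microbeads before FACS. Low and high (top ~1%) gates were set on anti-HA fluorescence for expression and streptavidin fluorescence for reagent binding, and each polyreactivity label reflects the gate of origin.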
row,Sequence,polyreactivity (PSR sort gate)
1,QVQLVESGGGLVQAGGSLRLSCAASGRTIGLNGMGWYRQAPGNERELVAGISWSGGSTNYADSVKGRFTISRDNAKNTVYLQMNSLKPEDTAVNYCPPDFVYYVVNDFGWSYAYEYWGQGTQVTVSS,low polyreactivity
2,QVQLVESGGGLVQAGGSLRLSCAASGRTIGVYAMGWYRQAPGKERELVAAISWSGGTTYYADSVKGRFTISRDNAKNTVYLQMNSLKPEDTAVYYCAADSYTEVEYWGQGTQVTVSS,low polyreactivity
3,QVQLVESGGGLVQAGGSLRLSCAASGRTIHYYAMGRSRQAPGKERELVAAITRGGNTYYADSVKGRFTISRDNAKNTVYLQMNSLKPEDTAVYYCAKDNHFEAYRYDYWGQGTQVTVSS,high polyreactivity
4,QVQLVESGGGLVQAGGSLRLSCAASGRTIKKYTMGWSRQAPGKERELVAVITSGGSTYYADSVKGRFTISRDNAKNTVYFQMNSLKPEDTAVYYCAVIYPELRTWGYYFWGQGTQVTVSS,high polyreactivity
5,QVQLVESGGGLVQAGGSLRLSCAASGRTIKYNAMGRYRQGPGKERELVAAITYSGGSTYYADSVKGRFTIARDNAKNTVYLQMNSLKPEDTSVYYCAAESRPYDPGIYGDYDYWGQGTQVTVSS,low polyreactivity
6,QVQLVESGGGLVQAGGSLRLSCAASGRTIKYYAMGWYRQAPGKERELVAVISWSGGSTYYADSVKGRFTISRDNAKNTVYLQMNSLKPEDTAVYYCNAVHQYRRRYNYWGQGTQVTVSS,high polyreactivity
7,QVQLVESGGGLVQAGGSLRLSCAASGRTINRSAMGWYRQAPGKARELVAAISTSGGTTYYADSVKGRFTISRDNAQNTAYLQMNSLKPEDPADYYCAKRGPVRTQYTYYYWGQGTQVTVSS,high polyreactivity
8,QVQLVESGGGLVQAGGSLRLSCAASGRTINRYAMGWYRQAPGKERELVAAISTSGGTTYYADSVKGRFTISRDNAKNTVYLQMNSLKPEDSAVYYCAAVARRGSYLGQRLDYWGQGTQVTVSS,high polyreactivity
9,QVQLVESGGGLVQAGGSLRLSCAASGRTIPFYAMGWYRQAHGKERELVDAIDSGGNTYADSVKGRFTISRDNAKNTVYLQMISLKPEDTAVYYCAVDGGEFSSYGYWGQGTQVTVSS,low polyreactivity
10,QVQLVESGGGLVQAGGSLRLSCAASGRTIPNYAMGWTRQAPGKERELVAAISSSGDRTYYADSVKGRFTISRDNAKNTVYLQMNSLKPEDTAVYYCAADRGARGDYWGQGTQVTVSS,high polyreactivity
11,QVQLVESGGGLVQAGGSLRLSCAASGRTIRGYAMGWYRQAPGKERELVAAITRSGGSTFADSVKGRFTISRDNAKNTVYLQMNSLKPEDTAVYYCAADRGYKYYYWGQGTQVTVSS,high polyreactivity
12,QVQLVESGGGLVQAGGSLRLSCAASGRTIRHNAMGWYRQAPGKERELVAAISRSGGSTYYADSVKGRFTISRDNAKNTVYLQMNSLKPEDTAVYYCAAGYHIIYTPEYYYWGQGTQVTVSS,high polyreactivity
13,QVQLVESGGGLVQAGGSLRLSCAASGRTIRWNAMGGSRPAPGKERELVAAITSRGGSTYYADSVKGRFTISRDNAKNTVYLQMNSLKPEDTAVYYCAAGGRYGDDYWGQGTQVTVSS,high polyreactivity
14,QVQLVESGGGLVQAGGSLRLSCAASGRTIVSNAMGWYRQAPGKERELVAAITRGSRTYYADSVKGRFTISRDNAKNTVYLQMNILKPEDTAVYYCAAYRDYGSYGSWGQGTQVTVSS,high polyreactivity
15,QVQLVESGGGLVQAGGSLRLSCAASGRTIWNYALGWYRQGPGKERELVAVIRFSDGSTYYADSVKGRFTISRDNAKNTVYLQMNSLKPEDTAVYYCAAKGPRLWGSGFDYWGQGTQVTVSS,low polyreactivity
16,QVQLVESGGGLVQAGGSLRLSCAASGRTIYRNAMGWYRQAPGKERELVAAITSGGSTNYADSVKGRFTLSRDNAKNTGYLQMNSLKPEDTAVYYCAATRGRYLWYYRYDYWGQGTQVTVSS,high polyreactivity
17,QVQLVESGGGLVQAGGSLRLSCAASGRTIYYYAMGWYRQAPGKERELVAAISRSGSSTFYADSVKGRFTISRDNAKNTVYLQMNSLKPEDTAVYYCAADDYSRRVYFFFGAYDYWGQGTQVTVSS,high polyreactivity
18,QVQLVESGGGLVQAGGSLRLSCAASGRTLAHYTMGWYRQAPGKERELVAAITFSGGRTYYADSVKGRFTISRDNAKNTVYLQMNSQKPEDTAVYYCAAPGRWYYRGDDYWGQGTQVTVSS,low polyreactivity
19,QVQLVESGGGLVQAGGSLRLSCAASGRTLARNAMGWDRQAPGKEWELVASINGRTTRTYYADSVKGRFTISRDNANNTVYLQRNSLKPEDTAVYYCAADPPGYVYGKRYYWGQGTQVTVSS,high polyreactivity
20,QVQLVESGGGLVQAGGSLRLSCAASGRTLARNAMGWYRQAPGKERELVASINGRTTRTYYADSVKGRFTISRDNAKNTVYFQMNSLKPEDPAVYYCAADPPGYVYGKRYYWGQGTQVTVSS,high polyreactivity
21,QVQLVESGGGLVQAGGSLRLSCAASGRTLARTALGWYRQAPGKERELVAAISRRAVRTYYADSVKGRFTISRDNAKNTVYLQMNILKPEDTAVYYCYAASSLPGYDYWGQGTQVTVSS,high polyreactivity
22,QVQLVESGGGLVQAGGSLRLSCAASGRTLFPNVMGWYRQAPGKERELVAAIRGTGGSTYADSVKGRVTISRDNAKNTVYLQMNSLKPEDTAVYYCAAGYPVTRRTIRFDYWGQGTQVTVSS,high polyreactivity

row,Sequence,polyreactivity (PSR sort gate)
1,QVQLVESGGGLVQAGGSLRLSCAASGRTLFTIAMGWYRQAPGKERELLAAISIGGTTYYADSVKGRFTISRDYAKNTVYLQMNSLKPEDTAVYYCNKVRRFHSEYGYWGQGTQVTVSS,high polyreactivity
2,QVQLVESGGGLVQAGGSLRLSCAASGRTLFWNAMGWYRQAPGKEREFVAAIRWRGGSTYYADSVKGRFTISRDNAKNTVYLQMNSLKPEDTAVYYCGAAVRPYKRQDDYWGQGTQVSVSS,high polyreactivity
3,QVQLVESGGGLVQAGGSLRLSCAASGRTLGTNAMGWYRQAPGKERELVATISRGGITNYADSVKGRFTISRDNPKNTVYLQMNSLKPEDTAVYYCNVRYQHVYRGYGPNKYNYWGQGTQVTVSS,high polyreactivity
4,QVQLVESGGGLVQAGGSLRLSCAASGRTLGYNAMGWYRQAPGKARELVASINSGVSTNYADSVQGRFTISRDNAKNTVYLQMNSLKPEDTAVYYCAAEKYGRGAGREGWESDYWGQGTQVTVSS,low polyreactivity
5,QVQLVESGGGLVQAGGSLRLSCAASGRTLGYYAKGWYRQAPGKERELVAAISRSGGSTYYADSVKGRFTISRDNAKNTVYLQMNSLKPEDTAVYYCAATYGPSRYRYDYWGQGTQVTVSS,high polyreactivity
6,QVQLVESGGGLVQAGGSLRLSCAASGRTLIYYAMGWYRQAPGKERELVAAISSSGTSTYYADSVKGRFTISRDNAKNTVYLQMNSLKPEDTAVYYCAADGRTLGRRYYYWGQGTQVTVSS,high polyreactivity
7,QVQLVESGGGLVQAGGSLRLSCAASGRTLLLNTMGWYRQAPGKERELVAAISWRDGSTYYADSVKGRFTFSRDKAKNTVYLLMNSLKPEDTAVYYCNARLSGRSQYDVRFDYWGQGTQVTVSS,low polyreactivity
8,QVQLVESGGGLVQAGGSLRLSCAASGRTLLPNAMGWSRQAPGKERELVASIRDGGDTNYADSVKGRFTISRDNAKNTVYLQMNSLKPEDTAVYYCNADWWAYYSFGHEYWGQGTQVTVSS,low polyreactivity
9,QVQLVESGGGLVQAGGSLRLSCAASGRTLLSPNAMGWYRQAPGKARELVAVISWSDGSTYYADSVKGRFTISRDNANNTVYLQMNSLKPEDTAVYYSAASDPFEASQYKYDYWGQGTQVTVSS,low polyreactivity
10,QVQLVESGGGLVQAGGSLRLSCAASGRTLNAYAMGWYRHAPGKERELVAAITWDDGSTYYAHSVKGRFTISRDNAKNTVSLQMNSLKPEDSAVYYCAAYAYNAIEYGYWGQGTQVNVSS,low polyreactivity
11,QVQLVESGGGLVQAGGSLRLSCAASGRTLPFNAMGWYRQAPGKERELVAAITRGGSTNYADSVKGRFTISRDNAKNTVYLQMNSLKPEDTAVYYCAARRYAWYGYRAYDYWGQGTQVTVSS,high polyreactivity
12,QVQLVESGGGLVQAGGSLRLSCAASGRTLQHYAMGWYRQAPGKERELVAGITKNGGSTYYADSVKGRFTISRDNAKNTVYLQMNSLKPEDTAVYYCAKRWGGYSIPLDYDYWGQGTQVTVSS,low polyreactivity
13,QVQLVESGGGLVQAGGSLRLSCAASGRTLQWYAMGWYRQAPGKERELVATISSGGSTKYADSVKGRFTISRDNAKNTVYLQMNSLKPEDTAVYYCNAQPYGIYYHRYYYWGQGTQVTVSS,low polyreactivity
14,QVQLVESGGGLVQAGGSLRLSCAASGRTLRRYAMGWYRQAPGKERELVAAITSGGTTNYADSVKGRFTISRDNAKNTVYLQMNSLKPEDTAVYYCNARKSSGLSSYDWYSWEYGYWGQGTQVTVSS,low polyreactivity
15,QVQLVESGGGLVQAGGSLRLSCAASGRTLRYYAMGWYRQAPGKDRELVASISIGGSTYYADSVKGRFTISRDNAKNTVYLQMTSLKPEDTAVYYGATDYSNSGYGYWGQGTQVTVSS,low polyreactivity
16,QVQLVESGGGLVQAGGSLRLSCAASGRTLRYYAMGWYRQAPGTERELVASISIGGSTYYADSVKGRFTISRDNAKNTVYLQMHSQKPEATAVYYCATDYSTSGYGYWGQGTQVTVST,low polyreactivity
17,QVQLVESGGGLVQAGGSLRLSCAASGRTLSAYAMGWYRQAPGKERELVAALRWRGGSTVYAASVKGRFTISRDNAKNPVYLQMHSLKPADTAVYYCNALPGNRRTVYYWGQGTQVTVSS,high polyreactivity
18,QVQLVESGGGLVQAGGSLRLSCAASGRTLSFYTMGWYRQAPGKERELVAAISSRTGSTYYADSVKGRFTISRDNAKNTVYLQMNRLKPEDTAVYYCAAASRAFAGSGHYYWGQGTQVTVSS,high polyreactivity
19,QVQLVESGGGLVQAGGSLRLSCAASGRTLSKNAMGWYRQAPGKERELVATISSVGRTNYADSVKGRFTISRDNAKNTVYLQMNSLKPVDTAVYYCAARRFRGSYYWGLGTQVTVSS,high polyreactivity
20,QVQLVESGGGLVQAGGSLRLSCAASGRTLSRYTMGWYRQAPGKERELVAAISTSGSTYYADSVKGRFTISRDNAKNTVYLQMNSLKPEDTAVYYCYAVRRYLQYATGYDYWGQGTQVTVSS,high polyreactivity
21,QVQLVESGGGLVQAGGSLRLSCAASGRTLSWYAMGWYRQAPGKERELVAAISYRGVSTYYADSVKGRFTISRDNAKNTVYLQMNSLNPEDTAVYYCAAESWYYSYIVEMEYWGQGTQVTVSS,high polyreactivity

# Reference: the nanobody polyreactivity screen of Harvey et al. (2022)
